Data set [1] has as its system subcutaneous MC38-hPD-L1 transplanted tumor. Put plainly: Antibody 2E5 monotherapy or in combination with Lenvatinib mesylate on B-hPD-1 humanized mouse MC38-hPD-L1 colon cancer model: tumor volume, tumor weight, TGI, synergy score. It counts as in vivo. Conditions: for Tumor volume (mm^3)/Mean ± SEM Day 17: 17th day after the start of treatment. The method, then:
Synergy score was calculated using the following formula described in Clarke R. Issues in experimental design and endpoint analysis in the study of experimental cytotoxic agents in vivo in breast cancer and other models[J]. Breast Cancer Research & Treatment, 1997, 46(2-3):255-278, which is incorporated by reference in its entirety:
Synergy score=((A/C)×(B/C))/(AB/C);
where A is RTV value of drug A; B is RTV value of drug B; C is RTV value of vehicle control; AB is RTV value of combination treatment with A and B respectively. • Synergy score>1 represents synergistic; • Synergy score=1 represents additive; • Synergy score<1 represents antagonistic.
where V0 and Vt are the average tumor volume at the start of treatment (day 0) and the average tumor volume on a certain time point (day t).
Mouse colon cancer cells MC38 were purchased from Shun Ran (Shanghai) Biotechnology Co., Ltd., and the cells were cultured in a 37° C., 5% CO2 incubator supplemented with Dulbecco's Modified Eagle's medium containing 10% inactivated fetal bovine serum. MC38 cells were genetically modified to overexpress human PD-L1 and knock out murine PD-L1, the modified cells were named as MC38-hPD-L1 cells.
(§1) MC38-hPD-L1 tumor cells were resuspended in 1×PBS to a concentration of 5×10^5 cells per 0.1 mL. Each of the B-hPD-1 humanized mice was subcutaneously inoculated at the right lateral thorax region with 0.1 mL of the cell suspension. When the average tumor volume reached about 77 mm^3, the mice with moderate tumor volume were selected and randomly divided into 6 groups according to tumor volume, with 10 mice in each group, and the treatment was initiated on the same day.
Tumor volume was measured 2-3 times a week in two dimensions using a caliper, and the volume was expressed in mm^3 using the formula: V=0.5 a×b^2 where a and b were the long and short diameters of the tumor, respectively.
At the termination of the experiment, the animals were photographed to record the tumor bearing state after euthanasia, and the tumors of the mice were weighed and photographed.
TGITV(%)=[1−(Ti−T0)/(Vi−V0)]×100%.
Ti: tumor volume of the treatment group at day i following treatment; T0: tumor volume of the treatment group at day 0 following treatment; Vi: tumor volume of the control group at day i following treatment; V0: tumor volume of the control group at day 0 following treatment.
At the termination of the experiment, the animals were euthanized, the tumors were separated and weighed, and the difference of tumor weight between each group was calculated. Tumor weight inhibition (TGITW) was calculated by the formula:
TGITW (%)=(WC−WT)/[…]×100%; where We means tumor weight of control group, WT means tumor weight of treatment group.
(§2) The original data measured and observed must be recorded. The original data was analyzed and the results were expressed by mean and standard error (Mean±SEM). The data of body weight, tumor volume and tumor weight was statistically analyzed using independent-samples t-test. All data were analyzed using SPSS, P<0.05 is considered to be statistically significant.

Data set [2] in a line: Body weight of B-hPD-1 humanized mice bearing MC38-hPD-L1 tumors, Embodiment 2 (antibody 2E5 / Lenvatinib mesylate). The data set is classed as in vivo, Mus musculus. Conditions: for Weight (g)/Mean ± SEM Day 17: 17th day after the start of treatment; for Weight (g) Changes: Day 17 vs Day 0. The method, then:
as §1
Animals were weighed 2-3 times a week before tumor inoculation, during animal grouping and the treatment, and before the euthanasia.
as §2

Setting [3] is: Antibody 2E5 1 mg/kg i.p., Lenvatinib mesylate 1 mg/kg p.o. QD (G2, G4, G5).
[4] abbreviates: Antibody 2E5 2 mg/kg i.p., Lenvatinib mesylate 1 mg/kg p.o. QD (G3, G6).
Where [5] appears, read: Antibody 2E5 1 mg/kg, Lenvatinib mesylate 1 mg/kg (G2, G4, G5).
[6] abbreviates: Antibody 2E5 2 mg/kg, Lenvatinib mesylate 1 mg/kg (G3, G6).

Consider one molecule from US20220387417A1, “Pharmaceutical Combination and Use Thereof” (CSTONE PHARMACEUTICALS (SUZHOU) CO., LTD., priority 2019, published 2022).

B1: Antibody 2E5: anti-PD-1 antibody (antibody N), heavy chain variable SEQ ID NO: 30, light chain variable SEQ ID NO: 31, human IgG4 constant region (antibody, V domains shown)
VH: QVQLVQSGAEVKKPGSSVKVSCKASGFTFTTYYISWVRQAPGQGLEYLGYINMGSGGTNYNEKFKGRVTITADKSTSTAYMELSSLRSEDTAVYYCAIIGYFDYWGQGTMVTVSS
VL: DVVMTQSPLSLPVTLGQPASISCRSSQSLLDSDGGTYLYWFQQRPGQSPRRLIYLVSTLGSGVPDRFSGSGSGTDFTLKISRVEAEDVGVYYCMQLTHWPYTFGQGTKLEIK
modifications: human IgG4 constant region; heavy chain variable region; light chain variable region
Regarding B1, the “Tumor volume (mm^3)/Mean ± SEM Day 17” value in data set [1] (setting [3]) is given as 1195 ± 252 mm^3; in data set [1] (setting [4]), 1302 ± 202 mm^3. The “Tumor volume (mm^3)/Mean ± SEM Day 0” value in data set [1] (setting [5]) and in data set [1] (setting [6]) was 77 ± 2 mm^3 throughout. The “Tumor weight (g) Mean ± SEM” value in data set [1] (Day 17, Antibody 2E5 1 mg/kg, Lenvatinib mesylate 1 mg/kg (G2, G4, G5)) is listed as 0.909 ± 0.186 g; in data set [1] (Day 17, Antibody 2E5 2 mg/kg, Lenvatinib mesylate 1 mg/kg (G3, G6)), 1.080 ± 0.190 g. Further, the “Tumor growth inhibition (%)” value in data set [1] (by tumor volume, Day 17, vs hIgG4 control, Antibody 2E5 1 mg/kg, Lenvatinib mesylate 1 mg/kg (G2, G4, G5)) is given as 56.4%; in data set [1] (by tumor volume, Day 17, vs hIgG4 control, Antibody 2E5 2 mg/kg, Lenvatinib mesylate 1 mg/kg (G3, G6)), 52.2%; in data set [1] (tumor weight analysis (Table 21), Day 17, vs IgG4 control, Antibody 2E5 1 mg/kg, Lenvatinib mesylate 1 mg/kg (G2, G4, G5)), 56.4%; in data set [1] (tumor weight analysis (Table 21), Day 17, vs IgG4 control, Antibody 2E5 2 mg/kg, Lenvatinib mesylate 1 mg/kg (G3, G6)), 48.2%. Also, the figures for the “Weight (g)/Mean ± SEM Day 17” value in data set [2] (setting [3]) and in data set [2] (setting [4]) were 28.6 ± 0.7 g and 27.8 ± 0.7 g, respectively. Further, the figures for the “Weight (g)/Mean ± SEM Day 0” value in data set [2] (setting [3]) and in data set [2] (setting [4]) were 24.9 ± 0.7 g and 25.0 ± 0.6 g, respectively. Besides, the “Weight (g) Changes” value in data set [2] (setting [5]) is reported as “+3.7 g”; in data set [2] (setting [6]) it was “+2.8 g”.
